Measurements: patent US20230134571A1 (INTERNATIONAL AIDS VACCINE INITIATIVE, published 2023)
Residue numbers refer to the chain shown, from its start.

Tests used:
Experiment in all cases: cell-based or functional assay
[1] = target: HIV Env, isolate SC422661.8 (HIV)
[2] = target: HIV Env, isolate Ce2060_G9 (HIV)
[3] = target: HIV Env, isolate CNE20 (HIV)
[4] = target: HIV Env, isolate RHPA4259.7 (HIV)
[5] = target: HIV Env, isolate 1006_11_C3_1601 (HIV)
[6] = target: HIV Env, isolate Ce1172_H1 (HIV)
[7] = target: HIV Env, isolate CNE52 (HIV)
[8] = target: HIV Env of isolate 7030102001E5(Rev-) (clade C) (HIV)
[9] = target: HIV Env of isolate HIV-001428-2.42 (clade C) (HIV)
[10] = target: HIV Env of isolate 3817.v2.c59 (clade CD) (HIV)
[11] = target: HIV Env of isolate T255-34 (clade AG) (HIV)
[12] = target: HIV Env of isolate 1006_11_C3_1601 (clade B) (HIV)
[13] = target: HIV Env of isolate ZM53M.PB12 (clade C) (HIV)
[14] = target: HIV Env of isolate RHPA4259.7 (clade B) (HIV)
[15] = target: HIV Env of isolate CAP45.2.00.G3 (clade C) (HIV)
[16] = target: HIV Env of isolate CAP210.2.00.E8 (clade C) (HIV)
[17] = target: HIV Env of isolate Ce0393_C3 (clade C) (HIV)
[18] = target: HIV Env of isolate Ce1176_A3 (clade C) (HIV)
[19] = target: HIV Env of isolate Du172.17 (clade C) (HIV)
[20] = target: HIV Env, isolate CH0505.w4.3 (HIV)
[21] = target: HIV Env, isolate TRP363.2.00_10_3 (HIV)
[22] = target: HIV Env, isolate CeCAP188_1_D1_14(Rev-) (HIV)
[23] = target: HIV Env, isolate TRP290.2.00_23_6 (HIV)
[24] = target: HIV Env, isolate CT184_D3.15 (HIV)
[25] = target: HIV Env, isolate Ce703010054_2A2 (HIV)
[26] = target: HIV Env, isolate Ko459_T68_4 (HIV)
[27] = target: HIV Env, isolate 235080_3G7env2(Rev-) (HIV)
[28] = target: HIV Env, isolate 18814602_H8_F3 (HIV)
[29] = target: HIV Env, isolate ZM233M.PB6 (HIV)
[30] = target: HIV Env, isolate CAP244.2.00.D3 (HIV)
[31] = target: HIV Env, isolate CeCAP177_1A3 (HIV)
[32] = target: HIV Env, isolate ZM135M.PL10a (HIV)
[33] = target: HIV Env, isolate ZM214M.PL15 (HIV)
[34] = target: HIV Env, isolate TRP307.2.00_24_1 (HIV)
[35] = target: HIV Env, isolate 20258279_V2 (HIV)
[36] = target: HIV Env, isolate 3603_C11.13 (HIV)
[37] = target: HIV Env, isolate ZM215F.PB8 (HIV)
[38] = target: HIV Env, isolate Ko426_T78_10 (HIV)
[39] = target: HIV Env, isolate CT072_56_7 (HIV)

B1: ePGDM13 (antibody, V domains shown)
VH: QAQLVQSGPEVRKPGTSVKVSCKNPGNTLTTYDLHWVRQVPGQGLQWMGWISHEGDKKVIVERFKAKVTIDWDRSTNTAYLQLSGLTSEDTAVYYCAKGSKHRLRDYALYDEDGALNWAVDVDYLANLEFWGQGTAVTVSS
VL: DIVLTQSPLSLSVTPGESASISCKSSHSLQHGDRNNYLAWYVQKPGRSPQLLLDLASERASGVPDRFSGSGSEKDFTLKISRVETEDVGTYYCMQGRESPWTFGQGTKVDIK
IC80 (µg/ml) with constrains [1]: 6.26 µg/mL | IC80 (µg/ml) with constrains [2]: 0.071 µg/mL | IC80 (µg/ml) with constrains [3]: 0.015 µg/mL | IC80 (µg/ml) with constrains [4]: 1.43 µg/mL | IC80 (µg/ml) with constrains [5]: 3.3 µg/mL | IC80 (µg/ml) with constrains [6]: 0.242 µg/mL | IC80 (µg/ml) with constrains [7]: 11.3 µg/mL

B2: PGDM1400 (antibody, V domains shown)
VH: B1 VH with A2V, Q3H, V5T, N24A, T30K, Q39S, E89G, E112D, A126S
VL: B1 VL with I2F, L9H, Q30I, L53I, D54Y, E58S, E73D
IC50 (µg/ml) with constrains [8]: > 100 µg/mL | IC50 (µg/ml) with constrains [9]: 0.014 µg/mL | IC50 (µg/ml) with constrains [10]: > 100 µg/mL | IC50 (µg/ml) with constrains [11]: 0.046 µg/mL | IC80 (µg/ml) with constrains [11]: 0.182 µg/mL | IC50 (µg/ml) with constrains [12]: 1.86 µg/mL | IC50 (µg/ml) with constrains [13]: 0.009 µg/mL | IC50 (µg/ml) with constrains [14]: 0.491 µg/mL | IC50 (µg/ml) with constrains [15]: 0.001 µg/mL | IC50 (µg/ml) with constrains [16]: 0.33 µg/mL | IC50 (µg/ml) with constrains [17]: 0.009 µg/mL | IC50 (µg/ml) with constrains [18]: 0.526 µg/mL | IC50 (µg/ml) with constrains [19]: 5.42 µg/mL

B3: ePGDM5 (antibody, V domains shown)
VH: B1 VH
VL: B1 VL with I2F, S26D, L53I, E73R, S81D, T85A
IC50 (µg/ml) with constrains [8]: > 100 µg/mL | IC50 (µg/ml) with constrains [9]: 0.003 µg/mL | IC50 (µg/ml) with constrains [10]: 0.232 µg/mL | IC50 (µg/ml) with constrains [11]: 0.018 µg/mL | IC80 (µg/ml) with constrains [11]: 0.071 µg/mL | IC50 (µg/ml) with constrains [12]: 0.473 µg/mL | IC50 (µg/ml) with constrains [13]: 0.005 µg/mL | IC50 (µg/ml) with constrains [14]: 0.464 µg/mL | IC50 (µg/ml) with constrains [15]: 0.001 µg/mL | IC50 (µg/ml) with constrains [16]: 0.057 µg/mL | IC50 (µg/ml) with constrains [17]: 0.016 µg/mL | IC50 (µg/ml) with constrains [18]: 0.022 µg/mL | IC50 (µg/ml) with constrains [19]: 1.49 µg/mL

B4: ePGDM9 (antibody, V domains shown)
VH: B1 VH
VL: B1 VL with H27Q, Q30I, L53I, E73R
IC80 (µg/ml) with constrains [1]: 5.33 µg/mL | IC80 (µg/ml) with constrains [2]: 0.538 µg/mL | IC80 (µg/ml) with constrains [3]: 0.008 µg/mL | IC80 (µg/ml) with constrains [4]: 0.578 µg/mL | IC80 (µg/ml) with constrains [5]: 2.35 µg/mL | IC80 (µg/ml) with constrains [6]: 0.108 µg/mL | IC80 (µg/ml) with constrains [7]: 7.39 µg/mL | IC50 [20]: 0.001 µg/mL | IC80 [20]: 0.011 µg/mL | IC50 [21]: 1.81 µg/mL | IC80 [21]: > 50 µg/mL | IC50 [22]: > 50 µg/mL | IC80 [22]: > 50 µg/mL | IC50 [23]: 0.012 µg/mL | IC80 [23]: 0.06 µg/mL | IC50 [24]: < 0.0006 µg/mL | IC80 [24]: 0.002 µg/mL | IC50 [25]: 0.005 µg/mL | IC80 [25]: 0.027 µg/mL | IC50 [26]: 0.003 µg/mL | IC80 [26]: 0.126 µg/mL | IC50 [27]: 0.002 µg/mL | IC80 [27]: 0.005 µg/mL | IC50 [28]: < 0.0006 µg/mL | IC80 [28]: 0.002 µg/mL | IC50 [29]: < 0.0006 µg/mL | IC80 [29]: 0.001 µg/mL | IC50 [30]: 2.87 µg/mL | IC80 [30]: 19.9 µg/mL | IC50 [31]: 0.153 µg/mL | IC80 [31]: 1.06 µg/mL | IC50 [32]: > 50 µg/mL | IC80 [32]: > 50 µg/mL | IC50 [33]: > 50 µg/mL | IC80 [33]: > 50 µg/mL | IC50 [34]: > 50 µg/mL | IC80 [34]: > 50 µg/mL | IC50 [35]: > 50 µg/mL | IC80 [35]: > 50 µg/mL | IC50 [36]: 0.654 µg/mL | IC80 [36]: 2.17 µg/mL | IC50 [37]: < 0.0006 µg/mL | IC80 [37]: 0.007 µg/mL | IC50 [38]: > 50 µg/mL | IC80 [38]: > 50 µg/mL | IC50 [39]: 0.002 µg/mL | IC80 [39]: 1.23 µg/mL
